To fix the notation:
B1: mAb3-5 (antibody, V domains shown)
VH: EVQLVESGGGLVQPGGSLRLSCAASGFTFSNYGMNWVRQAPGKGLEWVSYISSGGTIYYADSVKGRFTISRDNAKNSVYLQMNSLRAEDTAVYYCARDPAYCGDDCYTIPAHYFDYWGQGTPVTVS
VL: DIQMTQSPSSLSASVGDRVTITCRTSQSISRYLNWYQQKPGKAPKLLIYAASSLQSGVPSRFTGSGSGTDFTLTISSLQPEDFATYYCQQSYSIPPVTFGQGTRVD
B2: mAb2-6 (antibody, V domains shown)
VH: VQLLESGGALVQPGGSLRLSCAASGFSFSNYAMSWVRQAPGKGLEWVSTISASGGTTYFADSVKGHFTISRDNSKNTLYLQMDSLRAEDTAVYYCAKDPNYYDLSGYFLGGYYFDYWGQGTLVTVSS
VL: EIVLTQSPGTLSLSPGERATLSCRASQSVRSSYLAWYQQKPGQAPRLLIYGASSRATDIPDRFSGSGSGTDFTLTISRLEPEDFAVYYCQQYGTSPAFGGGTKV
B3: mAb2-5 (antibody, V domains shown)
VH: EVQLVESGGGLVKPGGSPRLSCAASGFNFGSYSMNWVRQAPGKGLEWVSSISSSSSYIYYADSVKGRFTISRDNAKHSLYLQVNSLRAEDTAVYYCARDPTTYGYNSAWDKKGWYFDLWGRGTLLTVS
VL: VLTQPPSVSAAPGQMVTISCSGSSSNIGNDYISWYQQLPGTAPKLLIYDNNERPSGIPDRFSGSKSGTSATLGITGVQTGDEADYYCGTWDSSLSAWVFGEGTKLTVV
B4: mAb3-1 (antibody, V domains shown)
VH: EVQLLESGGGLVQPGGSLRLSCEASGFTFSRYPMNWVRQAPGKGLEWVSHISASGGTTYYADTVKGRFSISRDNSKNTLYLEMNSLRAEDTAIYFCAKDYPPDEVTMIVVGMPYFDSWGLGTLVSVSS
VL: not shown
B5: mAb3-6 (antibody, V domains shown)
VH: EVQLVESGGGLVQPGGSLRLSCSASGFHFSSYEMNWVRQAPGKGLEWVSYISSSGTYIDYADSVKGRFTISRDNPANSLYLQMYSLRAEDTAVYYCARRLWFGELPYSYYYGMDVWGQGTTVTVSS
VL: ALTQPASVSGSPGQSITISCTGTSSDIGGYNYVSWYQQHPGKAPELLIFDVSNRPSGVSNRFSGSKSGNTASLTISGLQAEDEADYHCCSYTRTSTVIFGGGTKLTVL
B6: mAb3-7 (antibody, V domains shown)
VH: QVQLQESGPGLVKPSETLSLTCTVSGGSISNYYWNWIRQPPGKGLEWIGYVHYSGSTNYNPSLKSRVSVSVDTSKNQFSLNLGSVTAADTAVYYCARQSRSYYNEVITDPKYNFDYWGQGTLVTVSS
VL: QSALTQPASVSGSPGQSITISCTGTSSDVGGYDYVSWYQQHPGKAPKLMIYDVSNRPSGVSNRFSGSKSGNTASLTISGLQAEDEADYYCSSYTSISTLVFGGGTKLTVL
B7: mAb3-2 (antibody, V domains shown)
VH: EVQLLESGGGLVQPGGSLRLSCAASGFTFSNYAMSWVRQAPGKGLEWVSLISGSGGSIDYADSVKGRFTISRDNSKNTLYLQMDSLRAEDTAVYYCSKDPIYYDLSGYYAGRIYYFDYWGQGTLVTVSS
VL: EIVMTQSPATLSVSPGDTATLSCRASHSVSRDLAWYQQKPGQAPRLLIYDASTRATGIPARFSGSGSGTEFTLTISSLQSEDFAVYYCQQYINWVTFGPGTKVDIE
B8: mAb3-3 (antibody, V domains shown)
VH: QVQLQESGPGLVKSSETLSLTCTVSGESISSSSHYWGWIRQPPGKGLEFLGNVYYLGSTYYNPSLESRVTILLDTSKNQFSLKVNSVTVADTAVYYCARHGAGSYSGLFFDYWGQGARVIVSS
VL: DIQMTQSPSFVSASVGDRVNITCRASQGINSWLAWYQQKPGKAPKLLIYSASSLQSGVPSRFSGSGSGTDFTLTISTLQPEDFATYYCQQANSFPYTFGQGTKVD
B9: mAb2-3 (antibody, V domains shown)
VH: VQLVESGGGLVKPGGSLRLSCATSGFTFSDYYMSWIRQAPGKGLEWVSYISSSGSTIYYADSVKGRFTMSRDNAKNSLFLRMNSLRAEDTAVYYCARDQITVDREVIRAHYYYGMDVWGQGTTVTVS
VL: DIQMTQSPSSVSASVGDRVTITCRASQGINSYLAWYQQKPGKAPKLLIYAASSLESGVPSRFSGSGSGTDFTLTISSLQPEDFATYYCQQANSFPLTFGGGTKVDI
B10: mAb3-4 (antibody, V domains shown)
VH: AVESGGGLVKPGGPLRLSCAASGFSLSDNYMTWIRQAPGKGLEWVSYISSSGSFINYADSVKGRFTISRDNAKNSLYLQMNSLRAEDTAVYYCARVLSSGGLTTSWRALWYFDVWGRGTLVTVS
VL: TVVTQEPSFSVSPGGTVTLTCGLTSGSVSTSYYPSWYQQTPGQTPRTLIYSTNIRSSGVPDRFSGSILGNKAALTITGAQADDECDYYCVLYMGSGIWVFGGGTKLTVL
B11: mAb2-4 (antibody, V domains shown)
VH: EVQLLESGGGLVHPGGSLRLSCAASGFPFSNFAMSWVRQAPGKGLEWVSTISGSSGSTYYADSVRGRFTISRDYSKNTVYLEMNSLRADDTAIYYCAKDRMITFGEVIVKHYDAFEIWGQGTRVAV
VL: DIQMTQSPSSLSASVGDRVTITCRASQTISTNVNWYQQKPGKAPKLLIYAASSLQSGVPSRFSGSGSGTDFTLTISSLQPEDFATFYCQQSYSAPLTFGEGTKV

In this assay the target is AAV9 capsid (adeno-associated virus serotype 9 (AAV9), UniProt Q6JC40). Kind of assay: far-Western, overlay or dot blot.
On to B1, for which the binding result is given as “binds”.
The value for B2 was “binds”; that for B3 was “binds”; that for B4 was “binds”.
As for B5, the binding result was “binds”.
The value for B6 was “binds”.
The value for B7 was “binds”; that for B8 was “binds”.
Regarding B9, the binding result was “binds”.
With B10, the binding result is listed as “binds”.
The value for B11 was “binds”.

Values taken from article doi:10.1101/2024.05.01.590489 (bioRxiv, 2024).
